This passage reports Top MFI results from patent publication EP4667491A1.

For the assay, the target named is human CNTN4 expressed on the cell surface (human) (UniProt Q8IWV2). Put plainly: flow cytometry; IgG on human CNTN4-overexpressing HEK293 cells. (In flow cytometry, cells or beads pass a laser one at a time.)
Chain of human CNTN4 expressed on the cell surface (human) (Q8IWV2 19-1000): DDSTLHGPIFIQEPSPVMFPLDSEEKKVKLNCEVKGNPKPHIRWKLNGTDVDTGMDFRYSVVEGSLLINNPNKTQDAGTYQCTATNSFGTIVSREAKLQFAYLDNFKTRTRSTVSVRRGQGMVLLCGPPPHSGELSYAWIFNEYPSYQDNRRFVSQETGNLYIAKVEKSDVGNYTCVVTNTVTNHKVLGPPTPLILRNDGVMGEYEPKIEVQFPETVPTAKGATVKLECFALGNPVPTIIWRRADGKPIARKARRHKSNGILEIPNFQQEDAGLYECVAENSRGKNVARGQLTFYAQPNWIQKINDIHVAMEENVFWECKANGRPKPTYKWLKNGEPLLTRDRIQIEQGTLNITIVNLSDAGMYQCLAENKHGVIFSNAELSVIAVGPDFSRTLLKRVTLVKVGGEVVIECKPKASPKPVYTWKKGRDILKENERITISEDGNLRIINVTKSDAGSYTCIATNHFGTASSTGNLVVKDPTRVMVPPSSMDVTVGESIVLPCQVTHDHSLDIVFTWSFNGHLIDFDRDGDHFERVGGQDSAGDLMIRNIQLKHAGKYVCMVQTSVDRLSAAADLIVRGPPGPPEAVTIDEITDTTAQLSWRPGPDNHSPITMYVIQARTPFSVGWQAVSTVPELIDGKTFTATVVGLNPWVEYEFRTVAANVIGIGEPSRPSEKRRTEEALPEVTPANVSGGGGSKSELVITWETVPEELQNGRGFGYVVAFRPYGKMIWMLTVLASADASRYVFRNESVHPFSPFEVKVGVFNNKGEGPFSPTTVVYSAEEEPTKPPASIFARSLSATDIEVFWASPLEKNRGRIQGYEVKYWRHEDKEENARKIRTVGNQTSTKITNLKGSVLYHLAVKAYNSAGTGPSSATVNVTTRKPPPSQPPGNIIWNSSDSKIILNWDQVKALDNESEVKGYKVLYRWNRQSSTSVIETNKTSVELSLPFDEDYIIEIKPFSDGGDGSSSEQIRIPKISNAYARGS

For the substance human IgG4 antibody (negative control), the Top MFI was determined as 13 MFI.
